Data published in PMC11317151, “DNA binding and bridging by human CtIP in the healthy and diseased states”.

Experiments:
CtIP R100W = CtIP R100W (human, UniProt Q99708 1-897, R100W); experiment: fluorescence anisotropy; Anisotropy: 20 mM Tris-Cl pH 8.0, 20 mM NaCl, 1 mM DTT, 5 nM HEX fork; EMSA: 20 mM Tris-Cl pH 8.0, 100 mM NaCl, 1 mM DTT, 0.1 mg/ml BSA, 5% glycerol, 2.5 nM Cy5 fork, room temperature; C-Trap reaction: 10 mM Tris-Cl pH 7.6, 20 mM NaCl, 1 mM DTT, 0.1 mg/ml BSA; conditions: protein: recombinant; tags: StrepII; chain copies: 4; label: 5'-HEX on strand 1; fork: 25 bp duplex, 20 nt 3' and 5' dT arms
CtIP R100W, sequence (Q99708 whole entry R100W): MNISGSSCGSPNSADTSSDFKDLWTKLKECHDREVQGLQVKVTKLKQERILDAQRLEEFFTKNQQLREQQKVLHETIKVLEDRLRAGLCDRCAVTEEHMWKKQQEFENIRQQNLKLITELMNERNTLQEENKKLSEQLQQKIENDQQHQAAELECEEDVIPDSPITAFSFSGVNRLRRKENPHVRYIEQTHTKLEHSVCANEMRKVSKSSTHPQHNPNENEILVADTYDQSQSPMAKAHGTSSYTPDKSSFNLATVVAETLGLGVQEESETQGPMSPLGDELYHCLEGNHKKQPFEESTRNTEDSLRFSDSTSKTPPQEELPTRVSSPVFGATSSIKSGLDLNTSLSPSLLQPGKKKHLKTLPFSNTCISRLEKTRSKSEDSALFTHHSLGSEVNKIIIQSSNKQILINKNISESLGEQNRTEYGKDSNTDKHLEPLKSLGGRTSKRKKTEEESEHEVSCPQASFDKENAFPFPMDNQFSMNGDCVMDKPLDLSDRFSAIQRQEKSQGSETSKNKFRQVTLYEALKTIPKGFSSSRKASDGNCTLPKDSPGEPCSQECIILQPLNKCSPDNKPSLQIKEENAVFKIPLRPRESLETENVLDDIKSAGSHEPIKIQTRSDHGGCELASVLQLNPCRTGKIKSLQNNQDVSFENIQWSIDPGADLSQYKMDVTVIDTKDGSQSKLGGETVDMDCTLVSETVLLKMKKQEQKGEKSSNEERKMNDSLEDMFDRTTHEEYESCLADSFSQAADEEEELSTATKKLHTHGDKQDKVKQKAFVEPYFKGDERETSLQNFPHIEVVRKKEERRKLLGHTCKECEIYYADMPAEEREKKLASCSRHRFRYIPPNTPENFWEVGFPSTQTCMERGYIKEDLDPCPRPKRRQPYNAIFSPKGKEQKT

CtIP ΔN500b = CtIP ΔN500b (human, UniProt Q99708 501-897); experiment: as above; conditions: protein: recombinant; tags: StrepII; label: 5'-HEX on strand 1; fork: 25 bp duplex, 20 nt 3' and 5' dT arms
CtIP ΔN500b, sequence (Q99708 501-897, stated change not applied): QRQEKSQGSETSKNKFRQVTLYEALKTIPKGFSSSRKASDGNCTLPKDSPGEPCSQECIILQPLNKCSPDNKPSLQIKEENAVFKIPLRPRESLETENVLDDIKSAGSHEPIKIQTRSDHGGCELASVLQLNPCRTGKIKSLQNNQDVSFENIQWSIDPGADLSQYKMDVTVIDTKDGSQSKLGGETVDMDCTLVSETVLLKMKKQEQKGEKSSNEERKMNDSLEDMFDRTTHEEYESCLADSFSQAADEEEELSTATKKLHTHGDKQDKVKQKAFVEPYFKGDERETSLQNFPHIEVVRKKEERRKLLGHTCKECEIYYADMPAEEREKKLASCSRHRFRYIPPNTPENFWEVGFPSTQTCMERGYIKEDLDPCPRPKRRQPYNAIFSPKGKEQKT

CtIP WT [1] = target: T1, CtIP WT (human, UniProt Q99708 1-897); experiment: as above; conditions: protein: recombinant; tags: StrepII (cleavable); chain copies: 4; label: 5'-HEX on strand 1; fork: 25 bp duplex, 20 nt 3' and 5' dT arms
T1 sequence (Q99708 whole entry): as the sequence (Q99708 whole entry R100W) above, with W100R counted along it

CtIP ΔN541b = CtIP ΔN541b (human, UniProt Q99708 542-897); experiment: as above; conditions: protein: recombinant; tags: StrepII; label: 5'-HEX on strand 1; fork: 25 bp duplex, 20 nt 3' and 5' dT arms
CtIP ΔN541b, sequence (Q99708 542-897, stated change not applied): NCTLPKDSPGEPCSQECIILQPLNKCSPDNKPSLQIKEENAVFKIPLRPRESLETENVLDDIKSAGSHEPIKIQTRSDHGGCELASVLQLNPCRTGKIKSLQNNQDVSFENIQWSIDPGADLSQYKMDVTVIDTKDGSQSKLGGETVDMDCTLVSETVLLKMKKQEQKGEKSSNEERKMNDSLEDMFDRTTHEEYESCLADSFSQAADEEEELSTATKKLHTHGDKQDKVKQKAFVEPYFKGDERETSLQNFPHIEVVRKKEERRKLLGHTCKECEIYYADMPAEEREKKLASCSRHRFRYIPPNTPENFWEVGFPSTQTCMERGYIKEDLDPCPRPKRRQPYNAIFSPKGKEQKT

CtIP ΔN500a = CtIP ΔN500a (human, UniProt Q99708 501-897); experiment: as above; conditions: protein: recombinant; tags: StrepII; chain copies: 2; label: 5'-HEX on strand 1; fork: 25 bp duplex, 20 nt 3' and 5' dT arms
CtIP ΔN500a, sequence (Q99708 501-897, stated change not applied): as the sequence (Q99708 501-897, stated change not applied) above

CtIP ΔN541a = CtIP ΔN541a (human, UniProt Q99708 542-897); experiment: as above; conditions: protein: recombinant; tags: StrepII; chain copies: 2; label: 5'-HEX on strand 1; fork: 25 bp duplex, 20 nt 3' and 5' dT arms
CtIP ΔN541a, sequence (Q99708 542-897, stated change not applied): as the sequence (Q99708 542-897, stated change not applied) above

CtIP WT [2] = target: T1, CtIP WT; experiment: fluorescence anisotropy; independent repeat; Anisotropy: 20 mM Tris-Cl pH 8.0, 20 mM NaCl, 1 mM DTT, 5 nM HEX fork; EMSA: 20 mM Tris-Cl pH 8.0, 100 mM NaCl, 1 mM DTT, 0.1 mg/ml BSA, 5% glycerol, 2.5 nM Cy5 fork, room temperature; C-Trap reaction: 10 mM Tris-Cl pH 7.6, 20 mM NaCl, 1 mM DTT, 0.1 mg/ml BSA; conditions: protein: recombinant; tags: StrepII (cleavable); chain copies: 4; label: 5'-HEX on strand 1; fork: 25 bp duplex, 20 nt 3' and 5' dT arms
MBP-CtIP-800-843 = MBP-CtIP-800-843 (human, UniProt Q99708 800-843); experiment: fluorescence-based binding assay; label not certain; weak binding equation; Anisotropy: 20 mM Tris-Cl pH 8.0, 20 mM NaCl, 1 mM DTT, 5 nM HEX fork; EMSA: 20 mM Tris-Cl pH 8.0, 100 mM NaCl, 1 mM DTT, 0.1 mg/ml BSA, 5% glycerol, 2.5 nM Cy5 fork, room temperature; C-Trap reaction: 10 mM Tris-Cl pH 7.6, 20 mM NaCl, 1 mM DTT, 0.1 mg/ml BSA; conditions: protein: recombinant; tags: MBP; label: 5'-HEX on strand 1; fork: 25 bp duplex, 20 nt 3' and 5' dT arms
MBP-CtIP-800-843, sequence (Q99708 800-843): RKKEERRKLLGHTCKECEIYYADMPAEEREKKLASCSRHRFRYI

CtIP ΔC608 [3] = target: T2, CtIP ΔC608 (human, UniProt Q99708 1-608); experiment: fluorescence anisotropy; no binding at 400 nM; Anisotropy: 20 mM Tris-Cl pH 8.0, 20 mM NaCl, 1 mM DTT, 5 nM HEX fork; EMSA: 20 mM Tris-Cl pH 8.0, 100 mM NaCl, 1 mM DTT, 0.1 mg/ml BSA, 5% glycerol, 2.5 nM Cy5 fork, room temperature; C-Trap reaction: 10 mM Tris-Cl pH 7.6, 20 mM NaCl, 1 mM DTT, 0.1 mg/ml BSA; conditions: protein: recombinant; tags: StrepII; chain copies: 4; label: 5'-HEX on strand 1; fork: 25 bp duplex, 20 nt 3' and 5' dT arms
T2 sequence (Q99708 1-608, stated change not applied): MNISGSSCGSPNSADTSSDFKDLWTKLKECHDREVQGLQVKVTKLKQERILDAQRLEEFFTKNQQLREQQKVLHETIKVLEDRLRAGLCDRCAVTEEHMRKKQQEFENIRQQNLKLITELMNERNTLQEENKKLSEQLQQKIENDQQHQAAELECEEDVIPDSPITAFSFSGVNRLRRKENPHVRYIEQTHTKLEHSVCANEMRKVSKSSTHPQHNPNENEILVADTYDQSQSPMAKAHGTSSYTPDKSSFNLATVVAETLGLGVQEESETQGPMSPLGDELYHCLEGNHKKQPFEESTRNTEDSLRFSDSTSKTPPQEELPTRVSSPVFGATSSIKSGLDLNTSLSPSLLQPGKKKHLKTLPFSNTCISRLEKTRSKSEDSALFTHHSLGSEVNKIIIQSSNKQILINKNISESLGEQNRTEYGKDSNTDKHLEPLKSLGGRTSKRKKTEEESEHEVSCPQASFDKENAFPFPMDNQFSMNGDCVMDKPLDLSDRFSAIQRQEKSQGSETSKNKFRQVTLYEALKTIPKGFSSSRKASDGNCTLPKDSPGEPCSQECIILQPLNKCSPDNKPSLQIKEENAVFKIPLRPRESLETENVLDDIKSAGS

CtIP ΔC608 [4] = target: T2, CtIP ΔC608; experiment: EMSA; undetectable at highest concentration; Anisotropy: 20 mM Tris-Cl pH 8.0, 20 mM NaCl, 1 mM DTT, 5 nM HEX fork; EMSA: 20 mM Tris-Cl pH 8.0, 100 mM NaCl, 1 mM DTT, 0.1 mg/ml BSA, 5% glycerol, 2.5 nM Cy5 fork, room temperature; C-Trap reaction: 10 mM Tris-Cl pH 7.6, 20 mM NaCl, 1 mM DTT, 0.1 mg/ml BSA; conditions: protein: recombinant; tags: StrepII; chain copies: 4; label: 5'-Cy5 on strand 1; fork: 25 bp duplex, 20 nt 3' and 5' dT arms
CtIP ΔN790 = CtIP ΔN790 (human, UniProt Q99708 791-897); experiment: fluorescence quenching; Results say Cy5-fork; Methods imply HEX (550 nm); Anisotropy: 20 mM Tris-Cl pH 8.0, 20 mM NaCl, 1 mM DTT, 5 nM HEX fork; EMSA: 20 mM Tris-Cl pH 8.0, 100 mM NaCl, 1 mM DTT, 0.1 mg/ml BSA, 5% glycerol, 2.5 nM Cy5 fork, room temperature; C-Trap reaction: 10 mM Tris-Cl pH 7.6, 20 mM NaCl, 1 mM DTT, 0.1 mg/ml BSA; conditions: protein: recombinant; tags: StrepII; label: 5'-Cy5 on strand 1; fork: 25 bp duplex, 20 nt 3' and 5' dT arms
CtIP ΔN790, sequence (Q99708 791-897, stated change not applied): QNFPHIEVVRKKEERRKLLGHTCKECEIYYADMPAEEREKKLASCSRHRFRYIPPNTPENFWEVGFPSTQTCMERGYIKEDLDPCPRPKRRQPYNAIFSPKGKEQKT

B1: HEX fork (mixed)
DNA 1: GCTTGCTAGGACGGATCGCTCGAGGTTTTTTTTTTTTTTTTTTTT
DNA 2: TTTTTTTTTTTTTTTTTTTTCCTCGAGCGATCCGTCCTAGCAAGC
Binder B1 has a Kd (CtIP R100W) of 115 nM, a Kd (CtIP ΔN500b) of 33 nM and a Kd (CtIP WT [1]) of 66 nM. It also gave a Kd (CtIP ΔN541b) of 960 nM, a Kd (CtIP ΔN500a) of 45 nM and a Kd (CtIP ΔN541a) of 210 nM. The Kd (CtIP WT [2]) was 37 nM, the Kd (MBP-CtIP-800-843) was 520 nM and the binding result (CtIP ΔC608 [3]) was “no binding”.

B2: Cy5 fork (mixed)
DNA 1: B1 DNA 1
DNA 2: B1 DNA 2
For B2, the binding result (CtIP ΔC608 [4]) was “no binding” and the Kd (CtIP ΔN790) was 270 nM.
